We go through 1 substance from publication doi:10.1101/2020.10.19.344200.

In this assay the target is S. scrofa RNA polymerase II (transcribing, phosphorylated, on a DNA-RNA scaffold) (S. scrofa). Kind of assay: cryo-EM structure.

“human U1 small nuclear ribonucleoprotein particle (from UniProt P08621;P09012;P09234) (complex)” returned a percent of Pol II particles with density for U1 snRNP of 17.5%.
